Reference: publication PMC2884070

Biological target: GST-CypA (cyclophilin A) (human) (UniProt P62937)
Assay: radioligand binding

Sequence of GST-CypA (cyclophilin A) (human) (P62937 whole entry): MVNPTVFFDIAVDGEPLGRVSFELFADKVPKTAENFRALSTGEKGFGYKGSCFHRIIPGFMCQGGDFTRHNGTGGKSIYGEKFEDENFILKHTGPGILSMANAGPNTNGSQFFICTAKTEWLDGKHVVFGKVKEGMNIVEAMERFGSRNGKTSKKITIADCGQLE

Substance	Kd
NS5A Con1 D320E-His (full length) (natural protein)	124 µM
full-length NS5A MD2b-1-His (genotype 2b) (natural protein)	112 µM
